Experimental data from doi:10.1101/2021.12.16.472979v1.

Substrate: N[C@@H](Cc1ccccc1)C(=O)O
Experiment: LC-MS decarboxylation assay, Michaelis-Menten fit
Type: biochemical, Enterococcus faecium
Conditions: 100 μM PLP, 200 mM sodium acetate pH 5.5, 100 nM enzyme, 37 °C

B1: Efm_TyrDC (Enterococcus faecium) (protein)
chain: MKDMDIKAVFIGDKAENGPVYKMLLNKMVDEHLGWRENYIPSDMPAISEGDKLTPDYLATRDHMIEVLDEVSQRLRAGSIPWHSAGRYWGQMNAETLMPALLAYNYAMLWNPNNVALESSMATSQMEAEVGQDFASLFNMADGWGHIAADGSIANLEGLWYARCIKSIPLAVKEVLPEKVKNMSEWALLNLSVEEILEMTESFTDEEMDEVKAASSRSGKNIQKLGKWLVPQTKHYSWMKALDICGVGLDQMVAIPVQEDYRMDINALEKTIRELADQKIPILGVVAVVGTTEEGQVDSVDKIIQLREKLKDEGIYFYLHVDAAYGGYARSLFLNEAGEFVPYASLAEFFEEHHVFHHYVTIDKEVYEGFRAISEADSVTIDPHKMGYVPYAAGGIVIKHKNMRNIISYFAPYVFEKSVKAPDMLGAYILEGSKAGATAAAVWTAHRVLPLNVTGYGQLIGASIEAAQRFREFLEQLHFTVKGKTIEVYPLNHPDFNMVNWVFKVQDCTDLNAINELNEKMFDRSSYMDGDVYGERFITSHTTFTQEDYGDSPIRFIERMGLSKEEWQKEQQITLLRAAIMTPYLNDDRIFNFYTKEIAKAMEKKLNEIIK
Km: 8.5 mM
